Data on two variants can be found in IntAct's records for PubMed 31063459.

The chains are these.
B1: Dynamin-1-like protein (Mus musculus), Q8K1M6-3 (parent)
chain: MEALIPVINKLQDVFNTVGADIIQLPQIVVVGTQSSGKSSVLESLVGRDLLPRGTGVVTRRPLILQLVHVSPEDKRKTTGEENGVEAEEWGKFLHTKNKLYTDFDEIRQEIENETERISGNNKGVSPEPIHLKVFSPNVVNLTLVDLPGMTKVPVGDQPKDIELQIRELILRFISNPNSIILAVTAANTDMATSEALKISREVDPDGRRTLAVITKLDLMDAGTDAMDVLMGRVIPVKLGIIGVVNRSQLDINNKKSVTDSIRDEYAFLQKKYPSLANRNGTKYLARTLNRLLMHHIRDCLPELKTRINVLAAQYQSLLNSYGEPVDDKSATLLQLITKFATEYCNTIEGTAKYIETSELCGGARICYIFHETFGRTLESVDPLGGLNTIDILTAIRNATGPRPALFVPEVSFELLVKRQIKRLEEPSLRCVELVHEEMQRIIQHCSNYSTQELLRFPKLHDAIVEVVTCLLRKRLPVTNEMVHNLVAIELAYINTKHPDFADACGLMNNNIEEQRRNRLARELPSAGSRDKVPSAGGGIGDGGQEPTTGNWRGMLKTSKAEELLAEEKSKPIPIMPASPQKGHAVNLLDVPVPVARKLSAREQRDCEVIERLIKSYFLIVRKNIQDSVPKAVMHFLVNHVKDTLQSELVGQLYKSSLLDDLLTESEDMAQRRKEAADMLKALQGASQIIAEIRETHLW

The assay “arp3_human ACTR3, P61158” covers variants of B1. To be noted: with arp3_human ACTR3, P61158.
Variants of B1 are the subject of the assay “cof1_human CFL1, P23528”. To be noted: with cof1_human CFL1, P23528.
Sequence of cof1_human CFL1, P23528 (P23528 whole entry): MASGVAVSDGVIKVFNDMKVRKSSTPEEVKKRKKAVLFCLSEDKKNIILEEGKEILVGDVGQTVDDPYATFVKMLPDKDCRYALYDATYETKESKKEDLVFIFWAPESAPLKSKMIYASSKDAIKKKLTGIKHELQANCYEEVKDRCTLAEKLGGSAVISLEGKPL

Regarding S600D, the “effect of a mutation on the interaction” value with arp3_human ACTR3, P61158 was “increasing interaction strength”; in the assay with cof1_human CFL1, P23528, “increasing interaction strength”.

With S600A, the “effect of a mutation on the interaction” value in the assay with arp3_human ACTR3, P61158 is “decreasing interaction strength”; in the assay with cof1_human CFL1, P23528 it was “decreasing interaction strength”.
